Assay results published in patent US20110118447A1.

B1: C5A (XPA23) (antibody, V domains shown)
VH: EVQLLESGGGLVQPGGSLRLSCAASGFTFSKYFMFWVRQAPGKGLEWVSVISPSGGMTRYADSVKGRFTISRDNSKNTLYLQMNSLRAEDTAVYYCARVGYGGNSDYWGQGTLVTVSS
VL: DIQMTQSPSSVSASVGDRLTIICRASQDINRWLAWYQQTPGNAPKLLIHSATSLQSGVPSRFSGSGSGTDFTLTINSLQPEDFATYYCQQADSFPLTFGGGTKVEIK

Assays:
[1] = target: binding partner (antigen) of ING-1, not given; experiment: Biacore; internal control identical to original
[2] = target: binding partner of C5A (XPA23); experiment: Biacore; internal control, L96 L is identical to the original C5A (XPA23)
[3] = target: binding partner of C5A (XPA23); experiment: Biacore (K-off), clones identical to parent C5A (XPA23)

| Molecule | fold difference in affinity vs original [1] [fold] | fold difference in affinity in comparison to original [2] [fold] | mean fold affinity of internal controls vs original [3] [fold] |
| --- | --- | --- | --- |
| ING-1 antibody variable domain (original, unmodified) | 1.38 | – | – |
| B1 | – | 1.16 | 1.03 |
